Source: patent publication US20200299375A1 (TILLOTTS PHARMA, published 2020)

B1: recombinant human TNFβ (ligand, UniProt P01374 35-205, looked up)
chain: LPGVGLTPSAAQTARQHPKMHLAHSTLKPAAHLIGDPSKQNSLLWRANTDRAFLQDGFSLSNNSLLVPTSGIYFVYSQVVFSGKAYSPKATSSPLYLAHEVQLFSSQYPFHVPLLSSQKMVYPGLQEPWLHSMYHGAAFQLTQGDQLSTHTDGIPHLVLSPSTVFFGAFAL
B2: 17-22-B03-sc08 (scFv)
scFv: MDIQMTQSPSSLSASVGDRVTITCQASQSISSYLAWYQQKPGKAPKLLIYKASTLASGVPSRFSGSGSGTDFTLTISSLQPEDFATYYCQCTYYEPSYVFRAFGGGTKLTVLGGGGGSGGGGSGGGGSGGGGSEVQLVESGGGLVQPGGSLRLSCKASGIDFSAGYDMCWVRQAPGKGLEWIACIDSRREESDYASWAKGRFTISKDSSKNTVYLQMNSLRAEDTAVYYCARGGYGGDGVDGAFDPWGQGTLVTVSS
notes: Humanized scFv, CDR-grafted light chain and structural-grafted heavy chain (CDR/STR); also called 17-22-B03-sc08 (CDR/STR); domain shuffled variant
B3: 17-22-B03-sc02 (scFv)
scFv: MDIQMTQSPSSLSASVGDRVTIKCQASQSISSYLAWYQQKPGKAPKLLIYKASTLASGVPSRFSGSGSGTEFTLTISDLEPADFATYYCQCTYYEPSYVFRAFGGGTKLTVLGGGGGSGGGGSGGGGSGGGGSEVQLVESGGGLVQPGGSLRLSCKASGIDFSAGYDMCWVRQAPGKGLEWIACIDSRREESDYASWAKGRFTISKDSSKNTVYLQMNSLRAEDTAVYYCARGGYGGDGVDGAFDPWGQGTLVTVSS
notes: Humanized scFv, structural graft (STR); also called 17-22-B03-sc02 (STR); structural graft
B4: 17-22-B03-sc12 (scFv)
scFv: MDIQMTQSPSSLSASVGDRVTITCQASQSISSYLAWYQQKPGKAPKLLIYKASTLASGVPSRFSGSGSGTDFTLTISSLQPEDFATYYCQSTYYEPSYVFRAFGGGTKLTVLGGGGGSGGGGSGGGGSGGGGSEVQLVESGGGLVQPGGSLRLSCKASGIDFSAGYDMCWVRQAPGKGLEWIACIDSRREESDYASWAKGRFTISKDSSKNTVYLQMNSLRAEDTAVYYCARGGYGGDGVDGAFDPWGQGTLVTVSS
notes: Humanized scFv, CDR(C90S)/STR design; also called 17-22-B03-sc12 (CDR(C90S)/STR)

Key:
17-22-B03-sc08 = target: B2; assay: competition ELISA, coated scFv, biotinylated TNFα (75 ng/mL), unlabeled TNFβ varied
Protocol: (§1) For this purpose, the scFvs were coated on a 96-well Maxisorp ELISA plate at a concentration of 1 μg/mL. […] To control precision of the response, the dose-response curves were analyzed in duplicate.

17-22-B03-sc12 = target: B4; assay: as above
Protocol: as §1

17-22-B03-sc02 = target: B3; assay: as above
Protocol: as §1

recombinant human TNFα [1] = target: T1, recombinant human TNFα (human, UniProt P01375 77-233); assay: cell-based or functional assay
[2] = target: T2, recombinant Cynomolgus monkey TNFα (Cynomolgus monkey (Macaca fascicularis), UniProt P79337 77-233); assay: cell-based or functional assay
Rhesus monkey TNFα [3] = target: T3, Rhesus monkey TNFα (Rhesus monkey (Macaca mulatta), UniProt P48094 77-233); assay: cell-based or functional assay
recombinant human TNFα [4] = target: T1, recombinant human TNFα; assay: SPR (MASS-1), TNFα immobilised by amine coupling, scFv injected 45 to 1.4 nM
Protocol: (§2) In a second step, for the best performing scFvs, Single Injection Cycle Kinetics (SiCK) were measured from a single injection cycle by simultaneously injecting six analyte samples at different concentrations into each of the eight parallel channels in the MASS-1 system. […] The apparent dissociation (kd) and association (kₐ) rate constants and the apparent dissociation equilibrium constant (KD) were calculated with the MASS-1 analysis software (Analyzer, Sierra Sensors) using one-to-one Langmuir binding model and quality of the fits was monitored based on Chi², which is a measure for the quality of the curve fitting. The smaller the value for the Chi² the more accurate is the fitting to the one-to-one Langmuir binding model. For affinity screenings, results were deemed valid if the Chi² was below 10 for the concentration analyzed. In cases where several scFv concentrations were analyzed, results were deemed valid if the average Chi^t over all the concentrations tested was below 10.

recombinant human TNFα [5] = target: T1, recombinant human TNFα; assay: inhibition ELISA, biotinylated human TNFα (960 pM) on coated TNFRI-Fc, scFv varied
Protocol: (§3) For the first inhibition ELISA, the extracellular domain of TNFRI fused to the Fc region of human IgG (R&D Systems, Cat. No. 372-RI) was coated on a 96-well Maxisorp ELISA at a concentration of 0.5 μg/mL. For the second inhibition ELISA, the extracellular domain of TNFRII fused to the Fc region of human IgG (R&D Systems, Cat. No. 726-R2) was coated at a concentration of 2 μg/mL. All subsequent steps were identical for both assays.

recombinant human TNFα [6] = target: T1, recombinant human TNFα; assay: inhibition ELISA, biotinylated human TNFα (960 pM) on coated TNFRII-Fc, scFv varied
Protocol: as §3

recombinant human TNFβ = target: B1; assay: competition ELISA, coated scFv, biotinylated TNFα, unlabeled TNFβ or TNFα as competitor
Protocol: as §1

Rhesus monkey TNFα [7] = target: T3, Rhesus monkey TNFα; assay: SPR, TNFα immobilised, scFv injected
[8] = target: T2, recombinant Cynomolgus monkey TNFα; assay: SPR (MASS-1), TNFα immobilised by amine coupling, scFv injected 45 to 1.4 nM
Protocol: as §2

Rhesus monkey TNFα [9] = target: T3, Rhesus monkey TNFα; assay: as above
Protocol: as §2

recombinant human TNFα [10] = target: T1, recombinant human TNFα; assay: inhibition ELISA: biotinylated human TNFα pre-incubated with the scFv, binding to coated TNFRI-Fc detected with streptavidin-HRP [panel 17-22-B03-sc12]
Protocol: as §3

recombinant human TNFα [11] = target: T1, recombinant human TNFα; assay: inhibition ELISA: biotinylated human TNFα pre-incubated with the scFv, binding to coated TNFRII-Fc detected with streptavidin-HRP [panel 17-22-B03-sc12]
Protocol: as §3

T2 sequence (P79337 77-233 limits assumed): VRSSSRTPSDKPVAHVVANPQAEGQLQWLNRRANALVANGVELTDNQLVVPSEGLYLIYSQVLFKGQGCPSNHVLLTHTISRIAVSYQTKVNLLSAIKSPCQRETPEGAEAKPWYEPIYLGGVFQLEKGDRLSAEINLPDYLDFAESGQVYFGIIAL
T1 sequence (P01375 77-233 limits assumed): as the sequence (P79337 77-233 limits assumed) above, with V37L, T44R, N72T, L138R counted along it
T3 sequence (P48094 77-233 limits assumed): as the sequence (P79337 77-233 limits assumed) above, with V37L counted along it

| Binder | Potency (L929 assay), rel. IC50 (IC50 Infliximab/IC50 scFv, ng/mL) (recombinant human TNFα [1]) | Potency (L929 assay), rel. IC90 (IC90 Infliximab/IC90 scFv, ng/mL) (recombinant human TNFα [1]) | Species-specificity IC50 [ng/mL], L929 assay, human TNFα (recombinant human TNFα [1]) | Species-specificity IC50 [ng/mL], L929 assay, cyno TNFα [2] | Species-specificity IC50 [ng/mL], L929 assay, rhesus TNFα (Rhesus monkey TNFα [3]) | Kd (recombinant human TNFα [4]) | koff (recombinant human TNFα [4]) | kon (recombinant human TNFα [4]) | IC50 (recombinant human TNFα [5]) | rel. IC50 (IC50 Infliximab/IC50 scFv), blocking of TNF-TNFRI interaction (recombinant human TNFα [5]) | rel. IC90 (IC90 Infliximab/IC90 scFv), blocking of TNF-TNFRI interaction (recombinant human TNFα [5]) | IC50 (recombinant human TNFα [6]) | rel. IC50 (IC50 Infliximab/IC50 scFv), blocking of TNF-TNFRII interaction (recombinant human TNFα [6]) | rel. IC90 (IC90 Infliximab/IC90 scFv), blocking of TNF-TNFRII interaction (recombinant human TNFα [6]) | Target selectivity, rel. IC50 of TNFβ vs TNFα (recombinant human TNFβ) | Kd [8] | koff [8] | kon [8] | Kd (Rhesus monkey TNFα [9]) | koff (Rhesus monkey TNFα [9]) | also measured |
| --- | --- | --- | --- | --- | --- | --- | --- | --- | --- | --- | --- | --- | --- | --- | --- | --- | --- | --- | --- | --- | --- |
| B1 |  |  |  |  |  |  |  |  |  |  |  |  |  |  |  |  |  |  |  |  | IC50 (17-22-B03-sc08): > 1250 µg/mL; IC50 (17-22-B03-sc12): > 1250 µg/mL; IC50 (17-22-B03-sc02): > 1250 µg/mL |
| B2 | 26 ratio | 26.6 ratio | 0.4 ng/mL | 0.5 ng/mL | 0.4 ng/mL | 0.061 nM | 6.8e-05 s⁻¹ | 1.1e+06 M⁻¹ s⁻¹ | 0.0212 µg/mL | 2.3 ratio | 2.5 ratio | 0.0353 µg/mL | 2.8 ratio | 2.7 ratio | > 10000 fold |  |  |  |  |  |  |
| B3 | 23.7 ratio | 29.4 ratio | 0.5 ng/mL | 0.6 ng/mL | 0.3 ng/mL | 0.052 nM | 5.9e-05 s⁻¹ | 1.1e+06 M⁻¹ s⁻¹ | 0.0334 µg/mL | 1.5 ratio | 1.4 ratio | 0.0711 µg/mL | 1.4 ratio | 1.8 ratio | > 10000 fold | 0.05 nM | 6e-05 s⁻¹ | 1.2e+06 M⁻¹ s⁻¹ | 0.15 nM | 0.00011 s⁻¹ | fold difference in affinity against human TNFα (Rhesus monkey TNFα [7]): ~3 fold; kon (Rhesus monkey TNFα [9]): 710000 M⁻¹ s⁻¹ |
| B4 | 13.4 ratio | 11.7 ratio | 0.6 ng/mL | 0.8 ng/mL | 0.9 ng/mL | 0.048 nM | 4e-05 s⁻¹ | 830000 M⁻¹ s⁻¹ |  | 1.5 ratio |  |  | 2.1 ratio |  | > 10000 fold | 0.07 nM | 5.2e-05 s⁻¹ | 750000 M⁻¹ s⁻¹ | 0.24 nM | 0.0002 s⁻¹ | kon (Rhesus monkey TNFα [9]): 830000 M⁻¹ s⁻¹; IC50 (read off the curve) (recombinant human TNFα [10]): ~0.03 µg/mL; IC50 (read off the curve) (recombinant human TNFα [11]): ~0.03 µg/mL |
